According to patent publication US20260055211A1 (GLYCOERA, published 2026):

Legend:
[1] = target: T1, recombinant anti-PR3 antibody CLB12.8; test: SPR (Biacore 8K), single cycle kinetics, CLB12.8 immobilized, kinetic (pre-steady state) fit, 1:1 binding model
T1 construct: Mouse monoclonal anti-PR3 antibody (detected with anti-mouse IgG); recombinant form used in SPR; also called anti-PR3 antibody clone CLB12.8; anti-PR3 mouse antibody
Description: (§1) Methods: Surface plasmon resonance (SPR) was used to measure binding kinetics (i.e., ka, kd, KD, equilibrium) of the PR3 glycoengineered polypeptide analyte to a recombinant CLB12.8 ligand (anti-PR3 antibody) or a biotinylated recombinant human ASGPR1 ligand (Acro Biosystems). Data was collected with a Biocore 8K. Either recombinant CLB12.8 or ASGPR1 was immobilized to the surface of a sensor chip and sequential injections of increasing concentrations of the PR3 glycoengineered polypeptide were performed in a single cycle kinetics experiment. ASGPR1 assays included 2 mM CaCl2 in the running buffer. Data were fit with a 1:1 binding model for CLB12.8 and with a heterogenous binding model for ASGPR1 using the fitting software provided by Cytiva.

[2] = target: T2, biotinylated recombinant human ASGPR1 (Acro Biosystems) (human, UniProt P07306 62-291, biotinylated); test: SPR (Biacore 8K), single cycle kinetics, ASGPR1 immobilized, 2 mM CaCl2, heterogeneous binding model; column ka2 (second component)
T2 construct: Bought reagent
T2 sequence (looked up): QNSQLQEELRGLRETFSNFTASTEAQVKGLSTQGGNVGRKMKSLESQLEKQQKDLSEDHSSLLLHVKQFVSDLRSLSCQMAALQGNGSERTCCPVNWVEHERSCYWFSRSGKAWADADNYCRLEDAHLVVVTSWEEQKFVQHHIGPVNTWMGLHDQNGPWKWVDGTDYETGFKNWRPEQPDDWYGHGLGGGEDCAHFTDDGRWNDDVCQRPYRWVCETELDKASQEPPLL
Description: as §1

[3] = target: T2, biotinylated recombinant human ASGPR1 …; test: SPR (Biacore 8K), single cycle kinetics, biotinylated ASGPR1 immobilized, 2 mM CaCl2, steady state fit; steady state KD (equilibrium fit)
Description: as §1

[4] = target: T2, biotinylated recombinant human ASGPR1 …; test: SPR (Biacore 8K), single cycle kinetics, biotinylated ASGPR1 immobilized, m1 as analyte, 2 mM CaCl2, heterogenous binding model; kd1, first component of the heterogenous binding model
Description: as §1

[5] = target: T1, recombinant anti-PR3 antibody CLB12.8; test: SPR (Biacore 8K), single cycle kinetics, CLB12.8 immobilized, steady state fit
Description: as §1

[6] = target: T1, recombinant anti-PR3 antibody CLB12.8; test: SPR (Biacore 8K), single cycle kinetics, CLB12.8 immobilized, m1 as analyte, 1:1 binding model
Description: as §1

[7] = target: T2, biotinylated recombinant human ASGPR1 …; test: SPR (Biacore 8K), single cycle kinetics, biotinylated ASGPR1 immobilized, 2 mM CaCl2, heterogenous binding model, KD1; pre-steady state KD1 (kinetic fit, first site)
Description: as §1

[8] = target: T2, biotinylated recombinant human ASGPR1 …; test: SPR (Biacore 8K), single cycle kinetics, biotinylated ASGPR1 immobilized, 2 mM CaCl2, heterogenous binding model, KD2; pre-steady state KD2 (kinetic fit, second site)
Description: as §1

[9] = target: T2, biotinylated recombinant human ASGPR1 …; test: SPR (Biacore 8K), single cycle kinetics, biotinylated ASGPR1 immobilized, m1 as analyte, 2 mM CaCl2, heterogenous binding model; ka1, first component of the heterogenous binding model
Description: as §1

[10] = target: T2, biotinylated recombinant human ASGPR1 …; test: SPR (Biacore 8K), single cycle kinetics, ASGPR1 immobilized, 2 mM CaCl2, heterogeneous binding model; column kd2 (second component)
Description: as §1

B1: PR3 glycoengineered polypeptide (other)
chain: IVGGHEAQPHSRPYMASLQMRGNPGSHFCGGTLIHPSFVLTAAHCLRDIPQRLVNVVLGAHNVRTQEPTQQHFSVAQVFLNNYDAENKLNDVLLIQLSSPANLSASVATVQLPQQDQPVPHGTQCLAMGWGRVGAHDPPAQVLQELNVTVVTAACRPHNICTFVPRRKAGICFGDAGGPLICDGIIQGIDSFVIWGCATRAAPDFFTRVALYVDWIRSTLRRVEAKGRPGGGGANSTAPAPAPAHHHHHHHHHH
modifications: N-glycans (81.5% A2GalNAc2, biantennary GalNAc-terminated) at the native sites N129 and N174 (numbering of UniProt P24158) and at the Asn of the C-terminal glycotag; 80-90% of molecules fully …
notes: Secreted from glycoengineered Leishmania tarentolae (cell line stCGP05880) and purified by IMAC; also called exemplary PR3 glycoengineered polypeptide; glycoengineered polypeptide of PR3
For B1, the Kd [1] was 24.7 nM, the kon [2] was 873 M⁻¹ s⁻¹ and the Kd [3] was 364 nM. The koff [4] was 7.54 s⁻¹, the Kd [5] was 32.4 nM and the koff [6] was 0.0754 s⁻¹. For the same binder, the kon [6] was 305000 M⁻¹ s⁻¹, the Kd [7] was 46.9 nM and the Kd [8] was 70.6 nM. For the same binder, the kon [9] was 1.61e+08 M⁻¹ s⁻¹ and the koff [10] was 6.16e-05 s⁻¹.
